Measurements taken from patent US20210171613A1 (NATIONAL RESEARCH COUNCIL OF CANADA, published 2021).

Experiments:
[1] = molecular target: T1, Clostridium difficile toxin A (TcdA) (Clostridium difficile, UniProt P16154 1-2710); experiment: cell-based or functional assay
[2] = molecular target: T1, Clostridium difficile toxin A (TcdA); experiment: SPR (Biacore 3000), VHH over immobilized TcdA, steady-state analysis
Procedure: (§1) Before surface plasmon resonance (SPR) binding experiments, IMAC-purified VHHs were subjected to de-salting and further purification by size-exclusion chromatography (SEC). Approximately 500 μg of each VHH was injected over a Superdex 75 Increase 10/300 GL SEC column (GE Healthcare) in Biacore running buffer HBS-EP (10 mM HEPES pH 7.4, 150 mM NaCl, 3 mM EDTA, 0.005% (v/v) P20; GE Healthcare) under the control of an ÄKTA FPLC at 0.8 mL/min. Monomeric VHH fractions were collected and analyzed for binding to TcdA using a Biacore 3000 SPR instrument (GE Healthcare). Approximately 4,500 resonance units (RUs) of TcdA (List Biological Laboratories, Campbell, Calif.) were immobilized on a CM5 sensor chip (GE Healthcare) using the conditions previously described (Hussack et al, 2011). HBS-EP running buffer was used for all binding studies and regeneration of TcdA surfaces. Next, various dilution ranges of VHHs (as low as 10 nM-0.5 nM to as high as 5 μM-50 nM) were injected over immobilized TcdA at a flow rate of 40 μL/min with 120 s contact time and 600 s dissociation. Reference-subtracted sensorgrams were analyzed with BIAevaluation software (GE Healthcare) and fit to a 1:1 binding model. In cases where rapid kₒₙ and koff rate constants were observed, equilibrium dissociation constants (KDs) were determined by steady-state analysis.

[3] = molecular target: T1, Clostridium difficile toxin A (TcdA); experiment: SPR (Biacore 3000), VHH over immobilized TcdA; ratio of parent KD to mutant KD
Procedure: as §1

[4] = molecular target: T1, Clostridium difficile toxin A (TcdA); experiment: SPR (Biacore 3000), VHH over immobilized TcdA; binding free energy difference relative to parent VHH
Procedure: as §1

[5] = molecular target: T1, Clostridium difficile toxin A (TcdA); experiment: SPR on immobilized TcdA
Procedure: as §1
The location of these mutations relative to the antigen epitope is illustrated in FIG. 2C.

[6] = molecular target: T1, Clostridium difficile toxin A (TcdA); experiment: SPR (Biacore 3000), VHH over immobilized TcdA, 1:1 fit
Procedure: as §1

T1 sequence (P16154 whole entry): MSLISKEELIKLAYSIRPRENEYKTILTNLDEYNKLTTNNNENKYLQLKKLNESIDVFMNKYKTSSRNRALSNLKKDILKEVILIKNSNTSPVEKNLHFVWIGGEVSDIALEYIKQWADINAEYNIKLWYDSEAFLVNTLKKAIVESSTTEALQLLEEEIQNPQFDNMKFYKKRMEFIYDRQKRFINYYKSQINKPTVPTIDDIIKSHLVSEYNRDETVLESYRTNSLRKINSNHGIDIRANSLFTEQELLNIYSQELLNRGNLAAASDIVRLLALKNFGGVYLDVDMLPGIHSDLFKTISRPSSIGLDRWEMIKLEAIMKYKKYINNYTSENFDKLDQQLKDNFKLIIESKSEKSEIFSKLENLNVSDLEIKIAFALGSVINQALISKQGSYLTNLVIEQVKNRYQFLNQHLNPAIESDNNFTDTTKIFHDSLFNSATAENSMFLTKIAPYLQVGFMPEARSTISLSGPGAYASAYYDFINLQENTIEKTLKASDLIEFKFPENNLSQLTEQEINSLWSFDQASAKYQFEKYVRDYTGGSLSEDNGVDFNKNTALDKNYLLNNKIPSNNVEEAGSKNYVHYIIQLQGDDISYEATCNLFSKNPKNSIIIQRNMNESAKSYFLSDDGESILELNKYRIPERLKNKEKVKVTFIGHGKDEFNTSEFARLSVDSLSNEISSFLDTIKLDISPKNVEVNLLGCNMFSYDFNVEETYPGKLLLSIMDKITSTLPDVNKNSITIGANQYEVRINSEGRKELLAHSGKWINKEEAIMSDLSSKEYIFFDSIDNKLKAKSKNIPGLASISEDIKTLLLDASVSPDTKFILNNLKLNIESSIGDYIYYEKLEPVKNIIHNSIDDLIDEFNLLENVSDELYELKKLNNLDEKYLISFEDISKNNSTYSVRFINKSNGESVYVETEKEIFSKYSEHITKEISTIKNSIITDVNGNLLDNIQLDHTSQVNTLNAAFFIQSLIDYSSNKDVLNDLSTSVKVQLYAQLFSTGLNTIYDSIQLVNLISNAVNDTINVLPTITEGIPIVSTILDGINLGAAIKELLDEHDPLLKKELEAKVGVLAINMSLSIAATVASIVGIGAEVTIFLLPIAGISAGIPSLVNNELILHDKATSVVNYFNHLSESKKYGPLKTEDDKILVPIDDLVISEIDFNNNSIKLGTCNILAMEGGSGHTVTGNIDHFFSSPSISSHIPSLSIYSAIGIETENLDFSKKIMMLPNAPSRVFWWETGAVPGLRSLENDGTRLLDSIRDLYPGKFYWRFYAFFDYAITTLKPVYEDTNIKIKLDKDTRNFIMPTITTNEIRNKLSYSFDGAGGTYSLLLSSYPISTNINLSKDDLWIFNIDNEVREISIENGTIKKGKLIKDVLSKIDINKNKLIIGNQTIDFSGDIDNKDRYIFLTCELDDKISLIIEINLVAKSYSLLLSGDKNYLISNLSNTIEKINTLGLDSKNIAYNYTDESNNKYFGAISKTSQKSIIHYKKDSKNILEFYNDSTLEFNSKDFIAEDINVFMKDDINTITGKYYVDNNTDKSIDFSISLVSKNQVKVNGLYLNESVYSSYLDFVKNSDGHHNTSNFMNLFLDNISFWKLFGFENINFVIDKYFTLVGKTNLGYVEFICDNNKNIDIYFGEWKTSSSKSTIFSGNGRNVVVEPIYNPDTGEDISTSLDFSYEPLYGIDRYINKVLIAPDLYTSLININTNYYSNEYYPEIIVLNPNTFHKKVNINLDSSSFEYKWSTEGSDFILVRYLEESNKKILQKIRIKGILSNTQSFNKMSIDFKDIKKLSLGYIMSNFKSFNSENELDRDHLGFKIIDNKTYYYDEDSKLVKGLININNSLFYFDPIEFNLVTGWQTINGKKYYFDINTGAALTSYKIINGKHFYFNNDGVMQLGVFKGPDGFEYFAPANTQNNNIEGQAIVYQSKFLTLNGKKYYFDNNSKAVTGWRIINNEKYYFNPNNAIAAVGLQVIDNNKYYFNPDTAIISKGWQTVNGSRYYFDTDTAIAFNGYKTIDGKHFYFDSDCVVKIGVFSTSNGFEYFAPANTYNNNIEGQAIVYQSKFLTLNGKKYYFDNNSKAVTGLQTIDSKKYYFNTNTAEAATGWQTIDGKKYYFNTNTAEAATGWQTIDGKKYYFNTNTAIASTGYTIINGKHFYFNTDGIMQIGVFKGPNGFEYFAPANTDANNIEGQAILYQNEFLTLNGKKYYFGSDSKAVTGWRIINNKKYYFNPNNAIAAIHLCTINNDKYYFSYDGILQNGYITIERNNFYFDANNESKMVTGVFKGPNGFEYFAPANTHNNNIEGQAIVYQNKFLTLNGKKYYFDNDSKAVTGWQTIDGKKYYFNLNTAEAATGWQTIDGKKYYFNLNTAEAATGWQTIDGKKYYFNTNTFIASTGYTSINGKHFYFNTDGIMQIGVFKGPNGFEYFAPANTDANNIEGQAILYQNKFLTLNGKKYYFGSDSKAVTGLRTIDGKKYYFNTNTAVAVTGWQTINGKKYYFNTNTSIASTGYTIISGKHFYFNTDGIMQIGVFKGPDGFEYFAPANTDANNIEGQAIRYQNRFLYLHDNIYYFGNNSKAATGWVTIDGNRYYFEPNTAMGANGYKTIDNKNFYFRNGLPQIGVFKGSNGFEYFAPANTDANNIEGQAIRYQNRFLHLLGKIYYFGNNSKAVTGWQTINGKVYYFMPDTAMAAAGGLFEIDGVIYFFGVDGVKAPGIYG

Binder | TcdA IC50, TcdA-induced Vero cell cytotoxicity (WST-1) [1] [nM] | maximal TcdA inhibition level [1] [%] | Kd [2] [nM] | KD^WT/KD [3] | ΔΔG [4] [kcal/mol] | fold decrease in affinity relative to parent A26.8 VHH [5] [fold] | Kd [6] [nM] | koff [6] [s⁻¹] | kon [6] [M⁻¹ s⁻¹] | further results
Parent A26.8 VHH (VHH, not shown: small tags and cut ends) VHH: QVKLEESGGGLVQAGGSLRLSCAASERTFSRYPVAWFRQAPGAEREFVAVISSTGTSTYYADSVKGRFTISRDNAKVTVYLQMNNLKREDTAVYFCAVNSQRTRLQDPNEYDYWGQGTQVTVSS | ~70 | ~60 | – | – | – | – | – | – | – | –
A26.8 VHH mutant Q106F (VHH, not shown: small tags and cut ends) VHH: QVKLEESGGGLVQAGGSLRLSCAASERTFSRYPVAWFRQAPGAEREFVAVISSTGTSTYYADSVKGRFTISRDNAKVTVYLQMNNLKREDTAVYFCAVNSQRTRLFDPNEYDYWGQGTQVTVSS | – | – | 5130 | 0.004 | 3.28 | 30 to 300 | – | – | – | –
A26.8 VHH mutant S53R (VHH, not shown: small tags and cut ends) VHH: QVKLEESGGGLVQAGGSLRLSCAASERTFSRYPVAWFRQAPGAEREFVAVISRTGTSTYYADSVKGRFTISRDNAKVTVYLQMNNLKREDTAVYFCAVNSQRTRLQDPNEYDYWGQGTQVTVSS | – | – | 224 | 0.08 | 1.45 | ~10 | – | – | – | –
A26.8 VHH mutant Q106L (VHH, not shown: small tags and cut ends) VHH: QVKLEESGGGLVQAGGSLRLSCAASERTFSRYPVAWFRQAPGAEREFVAVISSTGTSTYYADSVKGRFTISRDNAKVTVYLQMNNLKREDTAVYFCAVNSQRTRLLDPNEYDYWGQGTQVTVSS | – | – | 612 | 0.03 | 2.04 | 30 to 300 | – | – | – | –
A26.8-T56R, T103R (VHH, not shown: small tags and cut ends, also called lead double mutant; best double mutant) VHH: QVKLEESGGGLVQAGGSLRLSCAASERTFSRYPVAWFRQAPGAEREFVAVISSTGRSTYYADSVKGRFTISRDNAKVTVYLQMNNLKREDTAVYFCAVNSQRRRLQDPNEYDYWGQGTQVTVSS | ~12 | ~70 | – | 8.1 | -1.22 | – | 2.32 | 0.0193 | 8.33e+06 | fold increase in neutralization potency relative to parent A26.8 VHH [1]: 6 fold; fold affinity improvement relative to parent A26.8 VHH [5]: 8 fold; fold increase in kon relative to parent A26.8 VHH [5]: > 6 fold
A26.8 VHH mutant Q106Y (VHH, not shown: small tags and cut ends) VHH: QVKLEESGGGLVQAGGSLRLSCAASERTFSRYPVAWFRQAPGAEREFVAVISSTGTSTYYADSVKGRFTISRDNAKVTVYLQMNNLKREDTAVYFCAVNSQRTRLYDPNEYDYWGQGTQVTVSS | – | – | 2320 | 0.008 | 2.82 | – | – | – | – | –
A26.8 VHH mutant Q106W (VHH, not shown: small tags and cut ends) VHH: QVKLEESGGGLVQAGGSLRLSCAASERTFSRYPVAWFRQAPGAEREFVAVISSTGTSTYYADSVKGRFTISRDNAKVTVYLQMNNLKREDTAVYFCAVNSQRTRLWDPNEYDYWGQGTQVTVSS | – | – | 1480 | 0.01 | 2.55 | – | – | – | – | –
A26.8-T56R, Q101K, T103R (VHH, not shown: small tags and cut ends, also called lead triple mutant; best triple mutant) VHH: QVKLEESGGGLVQAGGSLRLSCAASERTFSRYPVAWFRQAPGAEREFVAVISSTGRSTYYADSVKGRFTISRDNAKVTVYLQMNNLKREDTAVYFCAVNSKRRRLQDPNEYDYWGQGTQVTVSS | ~12 | ~70 | – | 9.4 | -1.31 | – | 1.98 | 0.0241 | 1.23e+07 | fold increase in neutralization potency relative to parent A26.8 VHH [1]: 6 fold; fold change in kon relative to original A26.8 [5]: ~7 fold; fold improvement of KD relative to original A26.8 [5]: 10 fold
A26.8-T103R (VHH, not shown: small tags and cut ends) VHH: QVKLEESGGGLVQAGGSLRLSCAASERTFSRYPVAWFRQAPGAEREFVAVISSTGTSTYYADSVKGRFTISRDNAKVTVYLQMNNLKREDTAVYFCAVNSQRRRLQDPNEYDYWGQGTQVTVSS | – | – | – | 3.5 | -0.73 | – | 5.32 | 0.014 | 2.7e+06 | fold improvement in KD relative to parent A26.8 VHH [5]: > 2 fold; fold improvement in binding affinity relative to parent A26.8 VHH [5]: ~3 fold; fold improvement in koff relative to parent [5]: ~2.5 fold
